Data from patent US20190060366A1, “HIGHLY ENGRAFTABLE HEMATOPOIETIC STEM CELLS” (President and Fellows of Harvard College, priority 2016, published 2019).

What was measured:
[1] = test system: peripheral blood mononuclear cells (PBMCs); assay: Limiting dilution competitive transplants and secondary transplants of mobilized grafts; type: in vivo; conditions: secondarily transplanted mice; n=16 mice/group, P<0.01
CD34+ cells = conditions: cited from earlier work

B1: G-CSF: hematopoietic growth factor used clinically to mobilize HSC and HPC; comparator regimen (protein, UniProt P09919 31-207, looked up)
Granulocyte …: TPLGPASSLPQSFLLKCLEQVRKIQGDGAALQEKLVSECATYKLCHPEELVLLGHSLGIPWAPLSSCPSQALQLAGCLSQLHSGLFLYQGLLQALEGISPELGPTLDTLQLDVADFATTIWQQMEELGMAPALQPTQGAMPAFASAFQRRAGGVLVASHLQSFLEVSYRVLRHLAQP
competitiveness of graft as measured by contribution to chimerism [1]: remained static
patients that fail to mobilize an optimal CD34+ cell dose for autologous transplantation (CD34+ cells; autologous transplantation patients): Up to 60%
poor mobilization in response to G-CSF, share of normal, healthy donors (CD34+ cells; normal, healthy donors): 15%
